Measurements: paper PMC8990011, “Bcl-xL acts as an inhibitor of IP3R channels, thereby antagonizing Ca^2+-driven apoptosis” (Cell Death and Differentiation, 2021)

B1: GST-mIP3R1-LBD (domain or fragment)
chain: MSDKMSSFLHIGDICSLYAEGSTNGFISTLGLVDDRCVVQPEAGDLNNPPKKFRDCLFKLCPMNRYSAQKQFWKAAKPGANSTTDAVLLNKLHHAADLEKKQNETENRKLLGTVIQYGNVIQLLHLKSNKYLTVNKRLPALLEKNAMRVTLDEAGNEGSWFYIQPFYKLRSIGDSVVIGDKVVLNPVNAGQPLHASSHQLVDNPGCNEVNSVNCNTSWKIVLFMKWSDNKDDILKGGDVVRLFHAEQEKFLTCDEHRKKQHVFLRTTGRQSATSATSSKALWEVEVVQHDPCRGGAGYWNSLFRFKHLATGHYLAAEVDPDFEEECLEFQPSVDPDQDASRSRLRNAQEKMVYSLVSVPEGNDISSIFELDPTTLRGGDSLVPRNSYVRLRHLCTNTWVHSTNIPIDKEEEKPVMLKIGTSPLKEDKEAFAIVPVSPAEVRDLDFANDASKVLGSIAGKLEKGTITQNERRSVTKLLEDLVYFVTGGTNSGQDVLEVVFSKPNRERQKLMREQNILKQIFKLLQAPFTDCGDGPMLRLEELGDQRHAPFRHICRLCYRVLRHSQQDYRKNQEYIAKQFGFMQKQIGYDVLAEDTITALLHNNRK
B2: GST-mIP3R1-Fragment 3 (domain or fragment)
chain: SIHGVGELMTQVVLRGGGFLPMTPMAAAPEGNVKQAEPEKEDIMVMDTKLKIIEILQFILNVRLDYRISCLLCIFKREFDESNSQSSETSSGNSSQEGPSNVPGALDFEHIEEQAEGIFGGSEENTPLDLDDHGGRTFLRVLLHLTMHDYPPLVSGALQLLFRHFSQRQEVLQAFKQVQLLVTSQDVDNYKQIKQDLDQLRSIVEKSELWVYKGQGPDEPMDGASGENEHKKTEEGTSKPLKHESTSSYNYRVVKEILIRLSKLCVQESASVRKSRKQQQRLLRNMGAHAVVLELLQIPYEKAEDTKMQEIMRLAHEFLQNFCAGNQQNQALLHKHINLFLNPGILEAVTMQHIFMNNFQLCSEINERVVQHFVHCIETHGRNVQYIKFLQTIVKAEGKFIKKCQDMVMAELVNSGEDVLVFYNDRASFQTLIQMMRSERDRMDENSPLMYHIHLVELLAVCTEGKNVYTEIKCNSLLPLDDIVRVVTHEDCIPEVKIAYINFLNHCYVDTEVEMKEIYTSNHMWKLFENFLVDICRACNNTSDRKHADSILEKYVTEIVMSIVTTFFSSPFSDQSTTLQTRQPVFVQLLQGVFRVYHCNWLMPSQKASVESCIRVLSDVAKSRAIAIPVDLDSQVNNLFLKSHNIVQKTALNWRLSAR

Experiments:
6xHis-Bcl-xL^K87D = target: T1, 6xHis-Bcl-xL^K87D (human, UniProt Q07817-1 1-233, K87D, RED-tris-NTA dye on the His tag (Monolith His-Tag Labeling Kit) in MST); assay: MST; 6xHis-Bcl-xL proteins labelled with RED-tris-NTA kept constant at 50 nM; GST proteins titrated down from 15 µM to 5 nM; Monolith NT, 5% excitation power, medium MST power; triplicates; conditions: both partners purified
T1 construct: full-length Bcl-xL with K87D, made from pET45b-Bcl-xL by site-directed mutagenesis; also called full-length Bcl-xL^K87D; purified Bcl-xL^K87D; source: E. coli BL21, purified (NiNTA)
T1 sequence (Q07817 whole entry K87D): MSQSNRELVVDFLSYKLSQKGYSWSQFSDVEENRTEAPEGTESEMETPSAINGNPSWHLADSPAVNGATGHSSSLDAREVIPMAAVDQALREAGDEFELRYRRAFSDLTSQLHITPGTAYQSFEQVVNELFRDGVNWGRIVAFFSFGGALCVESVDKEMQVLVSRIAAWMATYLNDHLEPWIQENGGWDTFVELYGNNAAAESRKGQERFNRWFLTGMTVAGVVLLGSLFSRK

6xHis-Bcl-xL = target: T2, 6xHis-Bcl-xL (human, UniProt Q07817-1 1-233, RED-tris-NTA dye on the His tag (Monolith His-Tag Labeling Kit) in MST); assay: as above; conditions: both partners purified
T2 construct: full-length Bcl-xL cloned in pET45b in the 6xHis-encoding reading frame; also called wild-type 6xHis-Bcl-xL; full-length 6xHis-Bcl-xL; source: E. coli BL21, purified (NiNTA)
T2 sequence (Q07817 whole entry): as the sequence (Q07817 whole entry K87D) above, with D87K counted along it

Binder	Kd (6xHis-Bcl-xL^K87D) [nM]	Kd (6xHis-Bcl-xL) [nM]
B1	~1170	~701
B2	~990	~495
